Source: PMC3527619

Assays:
[1] = target: Microtubules (polymerized Tubulin, Triton-insoluble fraction) of HeLa cells (human (endogenous in HeLa)) (UniProt P68363); assay: Triton-X-100 extraction of soluble and insoluble (cytoskeletal) fractions, Western blot and densitometry; HeLa cells transfected with pCGN-Centaurin-α2; 0.1% Triton-X-100 in Pipes pH 6.94, EGTA, MgCl2, 2 M glycerol, 10 min at room temperature; control cells or cells treated with nocodazole (3 µg/ml, 3 h) or cold (4°C, 3 h)
[2] = target: Tubulin purified from bovine brain, polymerised to microtubules in vitro (bovine) (UniProt Q6B856); assay: co-sedimentation; as a4 (40 µM tubulin plus 5 µM Centaurin-α2, 90 minutes at 37°C), then 30 minutes of incubation on ice before centrifugation (37°C→4°C)
[3] = target: Tubulin purified from bovine brain, polymerised to microtubules in vitro (bovine) (UniProt Q6B856); assay: co-sedimentation; 40 µM tubulin plus 5 µM Centaurin-α2, 90 minutes of polymerization at 37°C in 80 mM K-PIPES pH 6.9, 2 mM EGTA, 1 mM MgCl2, 10% glycerol; 16500 g for 30 minutes; supernatant and pellet on SDS-PAGE, Coomassie, densitometry

UniProt P68363, sequence (P68363 whole entry, chain 1 of 2): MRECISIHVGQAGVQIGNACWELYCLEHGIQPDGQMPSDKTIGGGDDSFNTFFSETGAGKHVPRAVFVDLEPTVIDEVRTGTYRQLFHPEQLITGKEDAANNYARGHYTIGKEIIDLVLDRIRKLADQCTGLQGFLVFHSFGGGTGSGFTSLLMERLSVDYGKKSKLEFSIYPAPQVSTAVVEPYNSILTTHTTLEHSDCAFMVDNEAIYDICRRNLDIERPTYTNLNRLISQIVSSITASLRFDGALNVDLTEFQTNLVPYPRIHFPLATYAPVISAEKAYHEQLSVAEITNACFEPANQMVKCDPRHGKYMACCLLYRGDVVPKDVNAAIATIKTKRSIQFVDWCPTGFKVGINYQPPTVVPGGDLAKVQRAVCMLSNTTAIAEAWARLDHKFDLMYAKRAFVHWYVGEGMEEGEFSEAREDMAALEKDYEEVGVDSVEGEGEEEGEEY
UniProt P68363, sequence (P07437 whole entry, chain 2 of 2, further chain): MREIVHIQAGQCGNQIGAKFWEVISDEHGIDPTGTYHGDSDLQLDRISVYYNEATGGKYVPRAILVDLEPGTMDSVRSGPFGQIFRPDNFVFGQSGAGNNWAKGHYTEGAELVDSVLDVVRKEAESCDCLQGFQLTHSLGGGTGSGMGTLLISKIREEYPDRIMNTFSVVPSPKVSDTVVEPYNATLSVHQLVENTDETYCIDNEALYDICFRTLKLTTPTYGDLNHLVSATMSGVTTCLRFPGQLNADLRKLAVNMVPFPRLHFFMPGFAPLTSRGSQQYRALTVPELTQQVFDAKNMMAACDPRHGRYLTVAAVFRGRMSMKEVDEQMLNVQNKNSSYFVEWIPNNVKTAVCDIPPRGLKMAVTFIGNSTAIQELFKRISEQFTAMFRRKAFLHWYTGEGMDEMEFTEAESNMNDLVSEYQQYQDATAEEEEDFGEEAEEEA

| percent of Centaurin-α2 in the Triton-insoluble (MT) fraction [1] | percent of Centaurin-α2 in the MT (pellet) fraction [2] | percent of Centaurin-α2 in the MT (pellet) fraction [3] | Binder |
| --- | --- | --- | --- |
| 80% | – | – | HA (hemoagglutinin)-tagged Centaurin-α2 (pCGN-Centaurin-α2) (natural protein) MGDRERNKKRLLELLRAPDTGNAHCADCGAADPDWASYKLGIFICLNCCGVHRNFPDISRVKSVRLDFWDDSIVEFMIHNGNLRVKAKFEARVPAFYYIPQANDCLVLKEQWIRAKYERREFMADGETISLPGNREGFLWKRGRDNSQFLRRKFVLLAREGLLKYFTKEQGKSPKAVISIKDLNATFQTEKIGHPHGLQITYRRDGHTRNLFVYHESGKEIVDWFNALRAARLQYLKMAFPELPESELVPFLTRNYLKQGFMEKTGPKQKEPFKKRWFALDCHERRLLYYKNPLDAFEQGQVFLGNKEQGYEAYEDLPKGIRGNRWKAGLTIVTPERRFVLTCPSEKEQQEWLESLRGVLSSPLTPLNRLTASTESGRSSR |
| – | 50% | 80% | His-tagged Centaurin-α2 (recombinant, pET-Centα2) (natural protein) MGDRERNKKRLLELLRAPDTGNAHCADCGAADPDWASYKLGIFICLNCCGVHRNFPDISRVKSVRLDFWDDSIVEFMIHNGNLRVKAKFEARVPAFYYIPQANDCLVLKEQWIRAKYERREFMADGETISLPGNREGFLWKRGRDNSQFLRRKFVLLAREGLLKYFTKEQGKSPKAVISIKDLNATFQTEKIGHPHGLQITYRRDGHTRNLFVYHESGKEIVDWFNALRAARLQYLKMAFPELPESELVPFLTRNYLKQGFMEKTGPKQKEPFKKRWFALDCHERRLLYYKNPLDAFEQGQVFLGNKEQGYEAYEDLPKGIRGNRWKAGLTIVTPERRFVLTCPSEKEQQEWLESLRGVLSSPLTPLNRLTASTESGRSSR |
